From patent publication US20250243265A1 (published 2025)
Where a chain is given by its changes, count along the chain named. Names and notes keep the numbering of the source.

B1: 1F11 IgG (antibody, V domains shown)
VH: EVQLVESGGGLVQPGGSLRLSCAASGFTFSNTYISWVRQAPGKGLEWVASITPSSGSTDYADSVKGRFTISADTSKNTAYLQMNSLRAEDTAVYYCARTWLLRWVMDYWGQGTLVTVSS
VL: DIQMTQSPSSLSASVGDRVTITCRASQDVSTAVAWYQQKPGKAPKLLIYSAKFLYSGVPSRFSGSGSGTDFTLTISSLQPEDFATYYCQQSYTTPPTFGQGTKVEIK
B2: 1F11/2H5/3F5 triple mutant IgG (antibody, name in Kabat numbering, V domains shown)
VH: B1 VH with S57Q
VL: B1 VL with T94N
notes: S52K put into the 2H5 light chain, paired with the 3F5 heavy chain; human kappa IgG1
B3: 1F11/Y102L IgG (antibody, V domains shown)
VH: B1 VH with Y108L
VL: B1 VL
notes: Human kappa IgG1
B4: 1F11/Y102L T110A IgG (antibody, name in Kabat numbering, V domains shown)
VH: B1 VH with Y108L, T116A
VL: B1 VL
notes: Human kappa IgG1
B5: 3F5/Y102L T110A IgG (antibody, name in Kabat numbering, V domains shown)
VH: B1 VH with S57Q, Y108L, T116A
VL: B1 VL with K52S
notes: Human kappa IgG1
B6: 3F5/Y102L IgG (antibody, name in Kabat numbering, V domains shown)
VH: B1 VH with S57Q, Y108L
VL: B1 VL with K52S
notes: Human kappa IgG1
B7: 1F11/2C11/3F5 triple mutant IgG (antibody, name in Kabat numbering, V domains shown)
VH: B1 VH with S57Q
VL: B1 VL with T94Q
notes: S52K put into the 2C11 light chain, paired with the 3F5 heavy chain; human kappa IgG1

Target: T1, K63-linked diubiquitin (Boston Biochem) (Homo sapiens (Human), UniProt P0CG48 1-76, isopeptide bond between the C-terminus of one ubiquitin and Lys63 of the other)
T1 construct: Two ubiquitin units; also called K63 diUb
Assay: western blot
Protocol: Non-specific binding sites on the membranes were blocked by incubation in 5% milk in PBST for 1 hour at 25° C. with shaking. […] The membranes were washed three times in PBST with shaking. The IgGs were detected by incubating the membrane in a 1:10,000 dilution of a goat anti-human Fc fragment-specific IR Dye 800CW-conjugated secondary antibody (Rockland Immunochemicals) in 5% milk in PBST for 30 minutes at 25° C. with shaking. The membranes were then washed three times in PBST followed by one wash in PBS.

binding result | Binder
no binding | B1

Target: linear diubiquitin (Boston Biochem) (Homo sapiens (Human), UniProt P0CG48 1-152)
Assay: western blot, 1 µg/mL IgG

binding result | Binder
binds | B2
binds | B3
binds | B4
binds | B5
binds | B6
binds | B7
